Entries after “also recorded” stand apart in the source; their conditions may differ. Where no end group is shown, it is not given here. [ ]: non-standard residue; d: D form.
B1: FN-C/H V+Y (peptide)
peptide: WQPPRARIY
B2: RIY (peptide)
peptide: RIY
B3: PRARIY (peptide)
peptide: PRARIY

Assays:
[1] = in vivo rat model, reported; cited from earlier work
[2] = test system: peripheral blood mononuclear cells and spleen cells; conditions: reported, Wahl et al.; cited from earlier work
α4β1 integrin = α4β1 integrin (Homo sapiens, UniProt P05556+P13612); assay: Inhibition of α4β1 dependent adhesion of 8A2 stimulated Ramos cells to IIICS-GST; format: cell-based; set-up: endogenous in cells; host or cells: Ramos cells; conditions: Ramos cells activated with mAb 8A2, preincubated with peptide, result in words
Chain of α4β1 integrin (P13612 34-1032): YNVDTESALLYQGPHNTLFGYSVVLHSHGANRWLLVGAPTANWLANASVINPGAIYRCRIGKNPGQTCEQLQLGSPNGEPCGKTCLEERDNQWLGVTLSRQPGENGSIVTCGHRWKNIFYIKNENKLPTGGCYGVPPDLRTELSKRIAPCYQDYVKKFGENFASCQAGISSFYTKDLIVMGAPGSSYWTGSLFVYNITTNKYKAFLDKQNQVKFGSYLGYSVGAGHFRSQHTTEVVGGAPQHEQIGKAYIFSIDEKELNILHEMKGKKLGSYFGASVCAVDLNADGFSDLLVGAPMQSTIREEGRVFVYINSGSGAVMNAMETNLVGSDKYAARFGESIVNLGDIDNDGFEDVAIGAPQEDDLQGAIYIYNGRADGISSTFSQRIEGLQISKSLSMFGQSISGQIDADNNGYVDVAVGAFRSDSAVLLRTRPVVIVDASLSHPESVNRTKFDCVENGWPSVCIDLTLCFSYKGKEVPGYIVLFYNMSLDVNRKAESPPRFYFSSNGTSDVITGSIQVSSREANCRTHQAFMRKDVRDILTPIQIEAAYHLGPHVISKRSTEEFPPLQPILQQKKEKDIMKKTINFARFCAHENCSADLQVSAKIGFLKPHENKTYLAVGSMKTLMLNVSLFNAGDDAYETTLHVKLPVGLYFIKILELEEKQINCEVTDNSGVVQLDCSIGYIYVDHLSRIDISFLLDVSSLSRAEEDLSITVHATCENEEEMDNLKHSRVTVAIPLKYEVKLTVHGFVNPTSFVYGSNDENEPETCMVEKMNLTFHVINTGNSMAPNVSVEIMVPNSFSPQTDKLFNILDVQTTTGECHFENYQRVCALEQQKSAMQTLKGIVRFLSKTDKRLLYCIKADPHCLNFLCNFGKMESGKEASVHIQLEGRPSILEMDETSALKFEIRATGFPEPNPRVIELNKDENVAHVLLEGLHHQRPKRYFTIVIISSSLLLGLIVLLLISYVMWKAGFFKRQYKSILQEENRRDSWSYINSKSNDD
Chain of α4β1 integrin (P05556 21-798): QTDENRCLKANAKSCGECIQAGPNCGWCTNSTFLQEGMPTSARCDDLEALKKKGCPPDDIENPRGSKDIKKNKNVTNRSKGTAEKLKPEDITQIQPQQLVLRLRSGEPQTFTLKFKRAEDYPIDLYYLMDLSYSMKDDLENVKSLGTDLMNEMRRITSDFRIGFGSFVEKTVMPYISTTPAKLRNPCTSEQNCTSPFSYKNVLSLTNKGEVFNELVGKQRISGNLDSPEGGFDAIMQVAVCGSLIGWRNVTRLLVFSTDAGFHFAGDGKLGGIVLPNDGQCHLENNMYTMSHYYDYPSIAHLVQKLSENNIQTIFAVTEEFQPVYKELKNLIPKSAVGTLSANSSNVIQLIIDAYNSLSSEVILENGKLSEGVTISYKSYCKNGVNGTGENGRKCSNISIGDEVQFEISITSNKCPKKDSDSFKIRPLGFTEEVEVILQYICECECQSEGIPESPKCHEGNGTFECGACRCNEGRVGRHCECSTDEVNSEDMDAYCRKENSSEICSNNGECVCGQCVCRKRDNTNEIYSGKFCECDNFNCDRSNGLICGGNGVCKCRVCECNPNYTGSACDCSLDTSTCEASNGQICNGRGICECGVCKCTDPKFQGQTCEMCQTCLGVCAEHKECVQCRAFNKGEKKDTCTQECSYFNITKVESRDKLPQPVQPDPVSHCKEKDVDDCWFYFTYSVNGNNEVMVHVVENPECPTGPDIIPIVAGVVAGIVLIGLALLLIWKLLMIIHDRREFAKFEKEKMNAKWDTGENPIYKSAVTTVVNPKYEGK
Description: IIICS-GST is recombinantly produced fusion protein which contains a fragment from the type III CS region (“IIICS”) of plasma fibronectin fused to glutathione-S-transferase (“GST”). The fibronectin fragment corresponds to fibronectin amino acid residues 1961 to 2039 (sequence numbering for fibronectin as designated in U.S. Pat. No. 4,839,464) and includes the […] (SEQ ID NO:46) amino acid sequence (“CS1”; fibronectin residues 1961-1985). […] In the assay, a 96-well plate was coated with the substrate IIICS-GST. Ramos cells stimulated with the β1 activating monoclonal antibody 8A2 (“Ab 8A2”) were preincubated with one of the peptides to be evaluated for their ability to adhere to IIICS-GST.
The fusion protein can be constructed by first using PCR primers to amplify the coding sequence for residues 1961-2039 of plama fibronectin. The PCR product can be introduced into a suitable bacterial expression vector in frame with the gene for GST. The resulting vector can be transformed and expressed in a suitable host cell, such as E Coli, to produce the fusion protein. If desired, the fusion protein can be purified using a glutathione column.
A 96-well plate was coated in triplicate with […] of IIICS-GST diluted to […] in PBS containing 1 mM CaCl2, MgCl2 (“PBS/cations”) and incubated overnight at 37° C. The IIICS-GST solution was removed and the wells were blocked with 150 μ/well of PBS/cations containing 0.3% BSA for 1-2 hours at 37° C. During the assay each well contained 100 μl of Ramos cells (10,000 cells/well) with or without peptide. Ramos cells were washed 3 times in adhesion media (DMEM without phenol red containing 20 mM HEPES and 3 mg/ml BSA). Cells were counted and resuspended at 200,000 cells/ml. Concentrated Ramos cells were labeled for 20 minutes at 37° C. with 50 μg of the fluorescent label BCECF resuspended in 30 μl of dimethylsulfoxide (“DMSO”). The labeled cells were centrifuged and resuspended in adhesion media at a concentration of 200,000 cells/ml. The cells were activated with the activating Ab 8A2 at a concentration of 2 μg/ml purified IgG or 1:1000 culture supernatant.
While the cells were being labeled, inhibiting peptide dilutions were prepared. Lyophilized peptides were weighed and resuspended in adhesion media at a stock concentration of twice the maximal inhibitory concentration. If a peptide was difficult to get into solution, it was initially resuspended in 30 μl of DMSO. If a peptide needed to be suspended in DMSO, all of the eptides in that particular experiment (including the controls) were suspended in 30 μl of DMSO. […] The dose-dependent dilutions of peptides were prepared using adhesion media to dilute the stock peptide. Labeled cells were mixed with peptide dilutions for 5 minutes at 37° C. at a final concentration of 100,000 cells/ml and appropriate final peptide concentrations.
The blocking solution was removed from the 96-well plate and the cell/peptide mixture is added at 100 μl/well (10,000 cells/well) and incubated for 30 minutes at 37° C. An aliquot of standard cells/peptide (100 μl) was placed at 37° C. for quantitating adhesion. Using aspiration, non-adherent cells were removed from the plate. The standard cells were centrifuged and resuspended in […] of adhesion media. The standard cells were added to empty wells at 100, 80, 60, 40, 20 and 0 μl /well representing 100%, 80%, 60%, 40%, 20% and 0% adhesion, respectively. The plate fluorescence was read at excitation 485 and emission 530. Cell adhesion was represented as percent input cells remaining adherent and was determined by a standard curve of the fluorescence obtained with the standard cells. The experimental fluorescence readings were extrapolated from the standard curve to obtain percent adhesion.

α2β1 and α3β1 integrin = assay: Inhibition of α2β1, α3β1 integrin dependent human melanoma M14#5 cell adhesion to laminin and type IV collagen; format: cell-based; conditions: 0.5 mg/ml peptide (0.42 mM), 30 minutes
Protocol: An experiment was conducted to examine the ability of FN-C/H V+Y (SEQ ID NO:1) to inhibit α2β1, α3β1 integrin dependent cell adhesion using an assay based on human melanoma cells (M14#5).
Laminin, type IV collagen and BSA were coated overnight in a 96 well microtiter plate at 10 μg/ml and blocked with 0.3% BSA. M14#5 cells were preincubated with 0.5 mg/ml of peptide (equivalent to 0.42 mM FN-C/H V and scrambled FN-C/H V and 0.17 mM CSI) and allowed to adhere to substrates for 30 minutes.

α5β1 integrin [3] = molecular target: T1, α5β1 integrin (Homo sapiens, UniProt P05556+P08648); assay: Inhibition of α5β1 integrin dependent Mn+2 stimulated adhesion of K562 cells to fibronectin (FN); format: cell-based; conditions: for inhibition of K562 adhesion to FN at the maximal concentration tested: 0.84 mM peptide, K562 cells stimulated with 1 mM MnCl2
T1 construct: erythroleukemic cell line K562, which expresses α5β1 but not α4β1 integrin; endogenous in cells; host or cells: K562 cells
T1 sequence (P08648 42-894 limits assumed): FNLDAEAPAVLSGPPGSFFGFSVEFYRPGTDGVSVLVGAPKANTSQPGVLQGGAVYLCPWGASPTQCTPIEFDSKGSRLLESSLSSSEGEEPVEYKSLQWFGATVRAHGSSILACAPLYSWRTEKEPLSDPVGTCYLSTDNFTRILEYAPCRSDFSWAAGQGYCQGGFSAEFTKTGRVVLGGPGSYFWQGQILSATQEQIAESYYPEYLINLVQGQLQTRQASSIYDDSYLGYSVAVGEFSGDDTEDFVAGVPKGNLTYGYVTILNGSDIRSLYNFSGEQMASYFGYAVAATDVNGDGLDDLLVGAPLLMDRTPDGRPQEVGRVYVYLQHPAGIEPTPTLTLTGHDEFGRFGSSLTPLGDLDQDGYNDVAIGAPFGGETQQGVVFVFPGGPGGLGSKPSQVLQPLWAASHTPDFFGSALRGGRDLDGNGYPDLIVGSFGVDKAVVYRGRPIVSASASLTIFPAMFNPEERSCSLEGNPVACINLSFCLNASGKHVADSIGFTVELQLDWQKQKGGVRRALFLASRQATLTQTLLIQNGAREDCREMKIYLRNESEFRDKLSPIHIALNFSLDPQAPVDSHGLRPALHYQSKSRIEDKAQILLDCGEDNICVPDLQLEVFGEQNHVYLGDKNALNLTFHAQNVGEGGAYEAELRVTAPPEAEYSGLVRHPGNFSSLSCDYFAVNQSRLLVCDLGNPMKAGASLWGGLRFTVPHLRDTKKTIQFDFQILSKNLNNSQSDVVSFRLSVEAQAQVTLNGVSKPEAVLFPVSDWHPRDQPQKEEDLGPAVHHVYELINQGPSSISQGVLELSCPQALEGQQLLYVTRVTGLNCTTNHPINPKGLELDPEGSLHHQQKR
T1 sequence (P08648 895-1049 limits assumed): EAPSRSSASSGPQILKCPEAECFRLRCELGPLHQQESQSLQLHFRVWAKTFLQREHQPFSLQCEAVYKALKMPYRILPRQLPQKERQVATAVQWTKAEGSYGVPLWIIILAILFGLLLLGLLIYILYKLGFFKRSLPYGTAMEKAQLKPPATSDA
T1 sequence (P05556 21-798): as the sequence (P05556 21-798) above
Protocol: The cell adhesion assay was carried out as described above. […] Each data point represents the mean of triplicate determinations and the error bars represent the standard deviation of the mean. The solid black line represents adhesion to the negative control substrate, BSA.

α5β1 integrin [4] = molecular target: α5β1 integrin (UniProt P08648 42-1049; P05556 21-798); assay: cell-based or functional assay
Chain of α5β1 integrin (UniProt P08648 42-1049; P05556 21-798) (P08648 42-1049, chain 1 of 2): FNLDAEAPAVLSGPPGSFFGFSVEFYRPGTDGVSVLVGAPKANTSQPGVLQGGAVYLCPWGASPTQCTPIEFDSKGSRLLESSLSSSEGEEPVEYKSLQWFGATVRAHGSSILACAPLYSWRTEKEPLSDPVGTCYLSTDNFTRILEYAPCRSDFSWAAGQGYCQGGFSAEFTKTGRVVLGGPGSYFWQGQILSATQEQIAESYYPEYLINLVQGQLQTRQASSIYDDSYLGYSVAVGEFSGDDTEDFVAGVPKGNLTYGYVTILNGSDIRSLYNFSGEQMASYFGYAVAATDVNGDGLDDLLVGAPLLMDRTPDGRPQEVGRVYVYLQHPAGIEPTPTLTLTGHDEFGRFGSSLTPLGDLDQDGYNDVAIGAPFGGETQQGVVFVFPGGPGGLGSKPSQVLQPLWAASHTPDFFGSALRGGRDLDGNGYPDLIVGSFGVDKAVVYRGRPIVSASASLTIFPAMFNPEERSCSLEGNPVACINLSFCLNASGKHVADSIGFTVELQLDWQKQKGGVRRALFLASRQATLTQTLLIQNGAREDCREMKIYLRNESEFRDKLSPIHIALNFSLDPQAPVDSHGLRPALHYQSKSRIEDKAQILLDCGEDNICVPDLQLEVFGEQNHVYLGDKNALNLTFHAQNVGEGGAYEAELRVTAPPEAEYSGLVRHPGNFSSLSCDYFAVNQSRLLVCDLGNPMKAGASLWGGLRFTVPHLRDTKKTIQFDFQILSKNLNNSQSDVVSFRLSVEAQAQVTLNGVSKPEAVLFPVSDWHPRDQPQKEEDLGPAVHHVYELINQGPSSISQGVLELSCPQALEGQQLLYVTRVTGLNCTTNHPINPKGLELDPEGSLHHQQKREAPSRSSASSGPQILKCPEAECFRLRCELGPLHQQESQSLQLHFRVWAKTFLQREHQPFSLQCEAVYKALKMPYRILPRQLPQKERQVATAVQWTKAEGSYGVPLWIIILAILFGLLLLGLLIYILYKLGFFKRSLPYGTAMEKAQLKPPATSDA
Chain of α5β1 integrin (UniProt P08648 42-1049; P05556 21-798) (P05556 21-798, chain 2 of 2): as the sequence (P05556 21-798) above

Row | Molecule | inhibition of adhesion of 8A2 stimulated Ramos cells to IIICS-GST (α4β1 integrin) | also measured
1 | KNNQKSEPLIGR-KKTY (KNNQKSEPLIGRKKTY; listed as Homo sapiens) [FN-C/H II+Y] | – | anti-inflammatory properties [1]: exhibit anti-inflammatory properties; inhibition of leukocyte adhesion to fibronectin in vitro [2]: inhibit leukocyte adhesion to fibronectin in vitro
2 | IYWQPPRAR (listed as Homo sapiens) [SEQ ID NO:34] | inactive | –
3 | WQPPAARIY (listed as Homo sapiens) [SEQ ID NO:7] | capable of inhibiting β1 integrin dependent cell adhesion | –
4 | SPPRRARVTY (listed as Homo sapiens) [FN-C/H IV+Y] | – | inhibition of leukocyte adhesion to fibronectin in vitro [2]: inhibit leukocyte adhesion to fibronectin in vitro
5 | WQPIYPRAR (listed as Homo sapiens) [SEQ ID NO:35] | inactive | –
6 | RARIY (listed as Homo sapiens) [SEQ ID NO:25] | comparable on an equimolar basis to that of the 9 residue peptide, Y-tagged FN C/H V | –
7 | WQPPRARVY (listed as Homo sapiens) [SEQ ID NO:29] | comparable to that of FN C/H V+Y | –
8 | WQPPRARYI (listed as Homo sapiens) [SEQ ID NO:36] | inactive | –
9 | RPQIPWARY (listed as Homo sapiens) [SEQ ID NO:2] | did not inhibit cell adhesion | inhibition of M14#5 cell adhesion to laminin (α2β1 and α3β1 integrin; laminin coated substrate): has no effect; inhibition of M14#5 cell adhesion to type IV collagen (α2β1 and α3β1 integrin; type IV collagen coated substrate): has no effect
10 | RPAPQRWIY (listed as Homo sapiens) [SEQ ID NO:20] | exhibit the capability of inhibiting β1 integrin subunit dependent adhesion; also recorded: inhibited cell adhesion | –
11 | WAPPRARIY (listed as Homo sapiens) [SEQ ID NO:4] | capable of inhibiting β1 integrin dependent cell adhesion | –
12 | PRARI (listed as Homo sapiens) [SEQ ID NO:39] | not PRARI was able to inhibit | –
13 | PRARIY-OH [SEQ ID NO:24, PRARIY] | comparable on an equimolar basis to that of the 9 residue peptide, Y-tagged FN C/H V; also recorded: able to inhibit | inhibition of K562 adhesion to FN at the maximal concentration tested (α5β1 integrin [3]): completely inhibited; IC50 (α5β1 integrin [3]; K562 cells stimulated with 1 mM MnCl2, adhesion to FN, read-out: half-maximal inhibitory concentration): ~200 µM
14 | WQPPRARIF (listed as Homo sapiens) [SEQ ID NO:32] | comparable to that of FN C/H V+Y | –
15 | WQPPRARIW (listed as Homo sapiens) [SEQ ID NO:33] | comparable to that of FN C/H V+Y | –
16 | QPPRARIY (listed as Homo sapiens) [SEQ ID NO:22] | also exhibited α4β1 integrin dependent cell adhesion inhibition activity | –

Row | Molecule | inhibition of adhesion of 8A2 stimulated Ramos cells to IIICS-GST (α4β1 integrin) | also measured
17 | ARITGYIIY (listed as Homo sapiens) [SEQ ID NO:14] | exhibit the capability of inhibiting β1 integrin subunit dependent adhesion; also recorded: most active peptide; also recorded: inhibited cell adhesion | –
18 | WQPPRARLY (listed as Homo sapiens) [SEQ ID NO:28] | comparable to that of FN C/H V+Y | –
19 | WQPPDADIY (listed as Homo sapiens) [SEQ ID NO:38] | inhibits the 8A2 stimulated adhesion of Ramos cells at least as strongly as FN-C/H V+Y; also recorded: does not alter the ability of the peptide to inhibit β1 integrin subunit dependent adhesion | –
20 | YIRARPPQW (not fully specified (some residues); listed as Homo sapiens) [SEQ ID NO:40] | – | inhibition of adhesion of 8A2 stimulated Ramos cells to IIICS-GST (α4β1 integrin; listed as retro inverso FN-C/H V+Y): Neither of these two compounds inhibited Ramos cell binding; inhibition of adhesion of 8A2 stimulated Ramos cells to IIICS-GST (α4β1 integrin; listed as retro-inverso FN-C/H V−Y): unable to inhibit adhesion
21 | ARIY (listed as Homo sapiens) [SEQ ID NO:26] | comparable on an equimolar basis to that of Y-tagged FN C/H V | –
22 | RARITGYIY (listed as Homo sapiens) [SEQ ID NO:13] | exhibit the capability of inhibiting β1 integrin subunit dependent adhesion; also recorded: exhibited α4β1 integrin dependent cell adhesion inhibition | –
23 | WQPPRAAIY (listed as Homo sapiens) [SEQ ID NO:8] | capable of inhibiting β1 integrin dependent cell adhesion | –
24 | all D-form of FN-C/H V+Y: all D-form of FN-C/H V+Y (SEQ ID NO:1) ([dW][dQ][dP][dP][dR][dA][dR][dI][dY]; listed as Homo sapiens) | Neither of these two compounds inhibited Ramos cell binding | inhibition of adhesion of 8A2 stimulated Ramos cells to IIICS-GST (α4β1 integrin; listed as D-amino acid FN-C/H V−Y): unable to inhibit adhesion
25 | PRQAWRPIY (listed as Homo sapiens) [SEQ ID NO:18] | exhibit the capability of inhibiting β1 integrin subunit dependent adhesion; also recorded: inhibited cell adhesion | –
26 | PPRARIY (listed as Homo sapiens) [SEQ ID NO:23] | also exhibited α4β1 integrin dependent cell adhesion inhibition activity | –
27 | AQPPRARIY (listed as Homo sapiens) [SEQ ID NO:3] | capable of inhibiting β1 integrin dependent cell adhesion | –
28 | N=C(N)NCCC[C@H](N)C(=O)NCC(=O)N[C@@H](CC(=O)O)C(=O)O [RGD, reference compound] | – | inhibition of K562 adhesion to FN at the maximal concentration tested (α5β1 integrin [3]): completely inhibited
29 | WQPPRARI (listed as Homo sapiens) [SEQ ID NO:37, reference compound] | also inactive | –
30 | B1 | – | half-maximal inhibitory concentration (K562 adhesion to FN) (α5β1 integrin [4]): 0.2 mM
31 | B2 | – | half-maximal inhibitory concentration (K562 adhesion to FN) (α5β1 integrin [4]): ~0.2 mM
32 | B3 | – | half-maximal inhibitory concentration (K562 adhesion to FN) (α5β1 integrin [4]): ~0.2 mM

Source: patent publication US6849712B1, “Peptides with β1 integrin subunit dependent cell adhesion modulating activity” (Regents of the University of Minnesota, priority 1998, dated 2005)
